Experimental data reported in publication doi:10.1101/2024.03.08.584095v1.

Tests used:
[1] = substrate: NC(=O)C1=CN([C@@H]2O[C@H](COP(=O)(O)OP(=O)(O)OC[C@H]3O[C@@H](n4cnc5c(N)ncnc54)[C@H](OP(=O)(O)O)[C@@H]3O)[C@@H](O)[C@H]2O)C=CC1; assay: purified protein, by the assay type
purified protein = substrate: NC(=O)C1=CN([C@@H]2O[C@H](COP(=O)(O)OP(=O)(O)OC[C@H]3O[C@@H](n4cnc5c(N)ncnc54)[C@H](OP(=O)(O)O)[C@@H]3O)[C@@H](O)[C@H]2O)C=CC1; assay: purified protein; details: pH 7.1

Row | Protein | Km [1] | Km (purified protein)
1 | AtPORC (Arabidopsis thaliana) (protein) QTVTATPPANEASPEQKKTERKGTAVITGASSGLGLATAKALADTGKWHVIMACRNFLKAEKAARSVGMSKEDYTVMHLDLASLESVKQFVENFRRTEQPLDVLVCNAAVYQPTAKEPSFTAEGFEISVGTNHLGHFLLSRLLLDDLKKSDYPSKRMIIVGSITGNTNTLAGNVPPKANLGDLRGLASGLNGQNSSMIDGGEFDGAKAYKDSKVCNMLTMQELHRRYHEETGVTFASLYPGCIATTGLFREHIPLFRLLFPPFQKYITKGYVSEEEAGKRLAQVVSDPSLGKSGVYWSWNNNSSSFENQLSKEASDAEKAKKLWEVSEKLVGLA | 0.73 µM | 
2 | AtPORB (Arabidopsis thaliana) (protein) QTAATSSPTVTKSVDGKKTLRKGNVVVTGASSGLGLATAKALAETGKWNVIMACRDFLKAERAAKSVGMPKDSYTVMHLDLASLDSVRQFVDNFRRTETPLDVLVCNAAVYFPTAKEPTYSAEGFELSVATNHLGHFLLARLLLDDLKKSDYPSKRLIIVGSITGNTNTLAGNVPPKANLGDLRGLAGGLNGLNSSAMIDGGDFDGAKAYKDSKVCNMLTMQEFHRRFHEETGVTFASLYPGCIASTGLFREHIPLFRALFPPFQKYITKGYVSETESGKRLAQVVSDPSLTKSGVYWSWNNASASFENQLSEEASDVEKARKVWEISEKLVGLA | 1.27 µM | 
3 | AtPORB (Arabidopsis thaliana; S312E) (protein) QTAATSSPTVTKSVDGKKTLRKGNVVVTGASSGLGLATAKALAETGKWNVIMACRDFLKAERAAKSVGMPKDSYTVMHLDLASLDSVRQFVDNFRRTETPLDVLVCNAAVYFPTAKEPTYSAEGFELSVATNHLGHFLLARLLLDDLKKSDYPSKRLIIVGSITGNTNTLAGNVPPKANLGDLRGLAGGLNGLNSSAMIDGGDFDGAKAYKDSKVCNMLTMQEFHRRFHEETGVTFASLYPGCIAETGLFREHIPLFRALFPPFQKYITKGYVSETESGKRLAQVVSDPSLTKSGVYWSWNNASASFENQLSEEASDVEKARKVWEISEKLVGLA |  | 14.4 ± 1.66 µM
4 | SynPOR (Synechocystis sp. PCC 6803 substr. Kazusa) (protein) MEQPMKPTVIITGASSGVGLYGAKALIDKGWHVIMACRNLDKTQKVADELGFPKDSYTIIKLDLGYLDSVRRFVAQFRELGRPLKALVCNAAVYFPLLDEPLWSADDYELSVATNHLGHFLLCNLLLEDLKACPDADKRLIILGTVTANSKELGGKIPIPAPPDLGNFEGFEAGFKKPIAMINNKKFKSGKAYKDSKLCNMLTTRELHRRFHQETGIVFNSLYPGCVADTPLFRNHYSLFRTIFPWFQKNVTKGYVSQELAGERVAMVVADDKFKDSGVHWSWGNRQQAGREAFVQELSEQGSDAQKAQRMWDLSEKLVGLV | 12.85 µM | 
5 | AtPORA (Arabidopsis thaliana) (protein) QAIATSTPSVTKSSLDRKKTLRKGNVVVTGASSGLGLATAKALAETGKWHVIMACRDFLKAERAAQSAGMPKDSYTVMHLDLASLDSVRQFVDNFRRAEMPLDVLVCNAAVYQPTANQPTFTAEGFELSVGINHLGHFLLSRLLIDDLKNSDYPSKRLIIVGSITGNTNTLAGNVPPKANLGDLRGLAGGLNGLNSSAMIDGGDFVGAKAYKDSKVCNMLTMQEFHRRFHEDTGITFASLYPGCIATTGLFREHIPLFRTLFPPFQKYITKGYVSESEAGKRLAQVVADPSLTKSGVYWSWNKTSASFENQLSQEASDVEKARRVWEVSEKLVGLA | 2.47 µM | 
6 | TaPOR1 (Triticum aestivum) (protein) GVVVITGASSGLGLAAAKALAETGKWHVVMACRDFLKASKAAKAAGMADGSYTVMHLDLASLDSVRQFVDAFRRAEMPLDVLVCNAAIYRPTARTPTFTADGHEMSVGVNHLGHFLLARLLMEDLQKSDYPSRRMVIVGSITGNSNTLAGNVPPKASLGDLRGLAGGLSGASGSAMIDGDESFDGAKAYKDSKVCNMLTMQEFHRRYHEETGITFSSLYPGCIATTGLFREHIPLFRTLFPPFQKFVTKGFVSEAESGKRLAQVVAEPSLTKSGVYWSWNKDSASFENQLSQEASDPEKARKVWELSEKLVGLA | 39.67 µM | 
